The source of these data is patent publication CN106754740A.

Some results are limits rather than exact numbers.

This assay has as its target 纯化的重组蛋白MDR-1 (原核表达, PET28a-MDR-1, 大肠杆菌BL21) (human) (UniProt P08183). In words: direct ELISA, purified antibody diluted 1:200 to 1:12800 on plate coated with purified MDR-1 protein (10 μg/ml), goat anti-mouse IgG-HRP, OD450. (In general: ELISA stands for enzyme-linked immunosorbent assay.)
Sequence of UniProt P08183 (P08183 whole entry): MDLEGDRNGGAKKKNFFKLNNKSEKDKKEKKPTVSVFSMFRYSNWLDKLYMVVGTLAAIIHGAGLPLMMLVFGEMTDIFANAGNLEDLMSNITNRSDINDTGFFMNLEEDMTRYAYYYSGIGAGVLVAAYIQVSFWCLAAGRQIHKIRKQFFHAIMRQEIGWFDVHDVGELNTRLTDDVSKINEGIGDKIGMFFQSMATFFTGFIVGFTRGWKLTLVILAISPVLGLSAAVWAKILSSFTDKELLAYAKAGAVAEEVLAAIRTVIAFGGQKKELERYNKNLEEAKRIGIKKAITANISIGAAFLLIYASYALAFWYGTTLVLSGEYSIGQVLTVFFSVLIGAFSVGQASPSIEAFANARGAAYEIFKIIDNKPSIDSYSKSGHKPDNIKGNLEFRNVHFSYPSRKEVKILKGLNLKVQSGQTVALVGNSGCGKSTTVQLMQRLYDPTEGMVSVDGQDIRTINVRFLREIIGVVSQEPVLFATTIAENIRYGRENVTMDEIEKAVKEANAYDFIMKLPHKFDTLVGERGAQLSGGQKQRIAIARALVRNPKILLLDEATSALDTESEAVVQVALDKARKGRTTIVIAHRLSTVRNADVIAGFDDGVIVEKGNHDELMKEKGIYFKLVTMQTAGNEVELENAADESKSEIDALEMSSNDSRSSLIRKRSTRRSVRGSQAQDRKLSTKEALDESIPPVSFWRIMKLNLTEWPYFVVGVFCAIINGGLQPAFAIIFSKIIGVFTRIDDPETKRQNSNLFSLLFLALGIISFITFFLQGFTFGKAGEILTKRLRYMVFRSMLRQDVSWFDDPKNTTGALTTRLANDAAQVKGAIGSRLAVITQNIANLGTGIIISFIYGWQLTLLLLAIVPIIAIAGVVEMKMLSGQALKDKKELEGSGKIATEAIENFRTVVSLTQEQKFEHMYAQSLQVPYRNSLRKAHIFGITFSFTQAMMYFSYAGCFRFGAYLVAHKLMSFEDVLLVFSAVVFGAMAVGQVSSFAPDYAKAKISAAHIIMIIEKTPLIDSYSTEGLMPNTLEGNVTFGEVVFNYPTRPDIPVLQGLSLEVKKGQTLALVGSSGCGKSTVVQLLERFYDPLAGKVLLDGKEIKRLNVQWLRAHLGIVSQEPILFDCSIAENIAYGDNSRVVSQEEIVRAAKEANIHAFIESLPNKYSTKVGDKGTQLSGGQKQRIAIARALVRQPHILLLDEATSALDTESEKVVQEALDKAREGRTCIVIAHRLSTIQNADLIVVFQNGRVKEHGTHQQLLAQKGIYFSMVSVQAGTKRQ

B1: 小鼠抗人MDR-1单克隆抗体 (杂交瘤细胞株6C6, CGMCC No. 6917 产生) (antibody, part only; not given: light chain variable region, constant regions, V domains shown, part only)
VH: LGISTMNFGLSWVFLVLVLKGVQCEVKLVESGGGLVKPGGSLKLSCAASGFTFSNYAMSWVRQTPEKRLEWVASISSGGGGSTYYPDSVKGRFTISRDNARNILYLLMSSLRSEDTAMYYVCVMSLSEQSSCINLP
B1: the ELISA滴度 (dilution (1:x)) is over 10000.
